Assay results: patent US20140087995A1 (published 2014)
Numbered stars: 1 amine (or outer) side, 2 acyl side, 3 side chain; on linkers, the order of the positions; unused ones are H or OH. Bridge positions count the residues as written; N and C are the ends. Side chains are listed from the residue outwards. Ends that are not written are not given here. * marks the point of attachment. C20 diacid = O=C(O)CCCCCCCCCCCCCCCCCCC(=O)*; γGlu = O=C(O)[C@H](CCC(=O)[*:2])N[*:1]; AEEA = NCCOCCOCC(=O)O

T1: rat calcitonin receptor (rat, UniProt P32214 25-516)
T1 construct: whole, on cells; Cell membranes of transiently transfected BHK tk'ts 13 cells (Assay VIII); also called rCTR; rCT
T1 sequence (looked up): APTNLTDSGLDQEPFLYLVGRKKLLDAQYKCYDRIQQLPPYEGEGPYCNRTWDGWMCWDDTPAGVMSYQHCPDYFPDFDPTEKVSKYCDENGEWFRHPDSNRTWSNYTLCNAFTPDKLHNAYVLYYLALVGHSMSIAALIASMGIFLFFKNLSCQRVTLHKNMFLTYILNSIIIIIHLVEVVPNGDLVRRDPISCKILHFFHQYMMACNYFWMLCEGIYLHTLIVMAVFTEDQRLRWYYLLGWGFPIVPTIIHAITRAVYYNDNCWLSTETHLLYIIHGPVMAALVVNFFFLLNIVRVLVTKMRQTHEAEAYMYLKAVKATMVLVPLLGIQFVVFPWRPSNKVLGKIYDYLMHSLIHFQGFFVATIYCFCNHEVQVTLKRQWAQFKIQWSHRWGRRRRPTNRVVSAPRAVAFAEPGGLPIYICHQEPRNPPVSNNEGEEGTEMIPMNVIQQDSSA

T2: rat amylin receptor (rat calcitonin receptor + rat RAMP 3) (rat, UniProt P32214 25-516; Q9JJ73 23-147)
T2 construct: whole, on cells; Cell membranes of transiently transfected BHK tk'ts 13 cells (Assay VI); also called rAmylin-R; rat amylin 3(a) receptor
T2 sequence (looked up) 1: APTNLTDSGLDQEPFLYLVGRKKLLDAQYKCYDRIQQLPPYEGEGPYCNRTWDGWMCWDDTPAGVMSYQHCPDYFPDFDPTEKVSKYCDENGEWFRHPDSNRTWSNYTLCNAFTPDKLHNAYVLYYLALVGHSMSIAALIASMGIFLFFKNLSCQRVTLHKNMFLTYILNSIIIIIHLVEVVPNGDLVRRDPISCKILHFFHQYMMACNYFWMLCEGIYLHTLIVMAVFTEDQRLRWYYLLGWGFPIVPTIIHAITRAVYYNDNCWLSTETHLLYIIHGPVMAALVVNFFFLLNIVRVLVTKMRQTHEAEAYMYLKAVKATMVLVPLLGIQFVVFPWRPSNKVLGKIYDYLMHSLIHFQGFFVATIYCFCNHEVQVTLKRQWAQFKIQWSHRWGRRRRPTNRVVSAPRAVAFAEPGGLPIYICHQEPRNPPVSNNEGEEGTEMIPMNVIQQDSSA
T2 sequence (looked up) 2: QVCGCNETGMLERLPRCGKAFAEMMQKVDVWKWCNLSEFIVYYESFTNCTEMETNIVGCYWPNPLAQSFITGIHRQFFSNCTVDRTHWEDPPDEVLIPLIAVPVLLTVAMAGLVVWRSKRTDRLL


Key:
rat calcitonin receptor [1] = biological target: T1, rat calcitonin receptor; test: ratio IC50 rat calcitonin receptor / IC50 rat amylin receptor
[2] = biological target: T2, rat amylin receptor (rat calcitonin …); test: SPA competition vs 125I-rat amylin, membranes with rat CTR + rat RAMP3 (Assay VI)
rat calcitonin receptor [3] = biological target: T1, rat calcitonin receptor; test: SPA competition vs 125I-calcitonin, membranes with rat CTR (Assay VIII)

Binder | Ratio rCT/rAmylin binding (rat calcitonin receptor [1]) | IC50 [2] | IC50 (rat calcitonin receptor [3])
K([AEEA-γGlu-C20 diacid])CNTATCATQRLANFLRHSSPNFGAIPSSTPVGSHTY-NH2 (disulfide 2-7; N-terminus assumed; SMILES CC[C@H](C)[C@H](NC(=O)[C@H](C)NC(=O)CNC(=O)[C@H](Cc1ccccc1)NC(=O)[C@H](CC(N)=O)NC(=O)[C@@H]1CCCN1C(=O)[C@H](CO)NC(=O)[C@H](CO)NC(=O)[C@H](Cc1c[nH]cn1)NC(=O)[C@H](CCCNC(=N)N)NC(=O)[C@H](CC(C)C)NC(=O)[C@H](Cc1ccccc1)NC(=O)[C@H](CC(N)=O)NC(=O)[C@H](C)NC(=O)[C@H](CC(C)C)NC(=O)[C@H](CCCNC(=N)N)NC(=O)[C@H](CCC(N)=O)NC(=O)[C@@H](NC(=O)[C@H](C)NC(=O)[C@@H]1CSSC[C@H](NC(=O)[C@@H](N)CCCCNC(=O)COCCOCCNC(=O)CC[C@H](NC(=O)CCCCCCCCCCCCCCCCCCC(=O)O)C(=O)O)C(=O)N[C@@H](CC(N)=O)C(=O)N[C@@H]([C@@H](C)O)C(=O)N[C@@H](C)C(=O)N[C@@H]([C@@H](C)O)C(=O)N1)[C@@H](C)O)C(=O)N1CCC[C@H]1C(=O)N[C@@H](CO)C(=O)N[C@@H](CO)C(=O)N[C@H](C(=O)N1CCC[C@H]1C(=O)N[C@H](C(=O)NCC(=O)N[C@@H](CO)C(=O)N[C@@H](Cc1c[nH]cn1)C(=O)N[C@H](C(=O)N[C@@H](Cc1ccc(O)cc1)C(N)=O)[C@@H](C)O)C(C)C)[C@@H](C)O, Acylated analogue of human amylin; also called compound 57) | 135 | 0.181 nM | 24.4 nM
K([AEEA-γGlu-C20 diacid])CNTATCATQRLANFLRHSSPNFGAIPSPTPVGSNTY-NH2 (disulfide 2-7; N-terminus assumed; SMILES CC[C@H](C)[C@H](NC(=O)[C@H](C)NC(=O)CNC(=O)[C@H](Cc1ccccc1)NC(=O)[C@H](CC(N)=O)NC(=O)[C@@H]1CCCN1C(=O)[C@H](CO)NC(=O)[C@H](CO)NC(=O)[C@H](Cc1c[nH]cn1)NC(=O)[C@H](CCCNC(=N)N)NC(=O)[C@H](CC(C)C)NC(=O)[C@H](Cc1ccccc1)NC(=O)[C@H](CC(N)=O)NC(=O)[C@H](C)NC(=O)[C@H](CC(C)C)NC(=O)[C@H](CCCNC(=N)N)NC(=O)[C@H](CCC(N)=O)NC(=O)[C@@H](NC(=O)[C@H](C)NC(=O)[C@@H]1CSSC[C@H](NC(=O)[C@@H](N)CCCCNC(=O)COCCOCCNC(=O)CC[C@H](NC(=O)CCCCCCCCCCCCCCCCCCC(=O)O)C(=O)O)C(=O)N[C@@H](CC(N)=O)C(=O)N[C@@H]([C@@H](C)O)C(=O)N[C@@H](C)C(=O)N[C@@H]([C@@H](C)O)C(=O)N1)[C@@H](C)O)C(=O)N1CCC[C@H]1C(=O)N[C@@H](CO)C(=O)N1CCC[C@H]1C(=O)N[C@H](C(=O)N1CCC[C@H]1C(=O)N[C@H](C(=O)NCC(=O)N[C@@H](CO)C(=O)N[C@@H](CC(N)=O)C(=O)N[C@H](C(=O)N[C@@H](Cc1ccc(O)cc1)C(N)=O)[C@@H](C)O)C(C)C)[C@@H](C)O, Acylated analogue of human amylin; also called compound 54) | 179 | 0.049 nM | 8.79 nM
K([AEEA-γGlu-C20 diacid])CNTATCATQRLANFLRHSSPNFGAIPSPTNVGPNTY-NH2 (disulfide 2-7; N-terminus assumed; SMILES CC[C@H](C)[C@H](NC(=O)[C@H](C)NC(=O)CNC(=O)[C@H](Cc1ccccc1)NC(=O)[C@H](CC(N)=O)NC(=O)[C@@H]1CCCN1C(=O)[C@H](CO)NC(=O)[C@H](CO)NC(=O)[C@H](Cc1c[nH]cn1)NC(=O)[C@H](CCCNC(=N)N)NC(=O)[C@H](CC(C)C)NC(=O)[C@H](Cc1ccccc1)NC(=O)[C@H](CC(N)=O)NC(=O)[C@H](C)NC(=O)[C@H](CC(C)C)NC(=O)[C@H](CCCNC(=N)N)NC(=O)[C@H](CCC(N)=O)NC(=O)[C@@H](NC(=O)[C@H](C)NC(=O)[C@@H]1CSSC[C@H](NC(=O)[C@@H](N)CCCCNC(=O)COCCOCCNC(=O)CC[C@H](NC(=O)CCCCCCCCCCCCCCCCCCC(=O)O)C(=O)O)C(=O)N[C@@H](CC(N)=O)C(=O)N[C@@H]([C@@H](C)O)C(=O)N[C@@H](C)C(=O)N[C@@H]([C@@H](C)O)C(=O)N1)[C@@H](C)O)C(=O)N1CCC[C@H]1C(=O)N[C@@H](CO)C(=O)N1CCC[C@H]1C(=O)N[C@H](C(=O)N[C@@H](CC(N)=O)C(=O)N[C@H](C(=O)NCC(=O)N1CCC[C@H]1C(=O)N[C@@H](CC(N)=O)C(=O)N[C@H](C(=O)N[C@@H](Cc1ccc(O)cc1)C(N)=O)[C@@H](C)O)C(C)C)[C@@H](C)O, Acylated analogue of human amylin; also called compound 56) | 131 | 0.04 nM | 5.26 nM
